In US20250326823A1:

Assays:
Assay in all cases: cell-based or functional assay
[1] = molecular target: SARS-CoV-2 spike (S) protein, variant BA.2.86 (SARS-CoV-2) (UniProt P0DTC2)
[2] = molecular target: SARS-CoV-2 spike (S) protein, variant CH.1.1 (SARS-CoV-2) (UniProt P0DTC2)
[3] = molecular target: SARS-CoV-2 spike (S) protein, variant EG.5.1 (SARS-CoV-2) (UniProt P0DTC2)
[4] = molecular target: SARS-CoV-2 spike (S) protein, variant JN.1 (SARS-CoV-2) (UniProt P0DTC2)
[5] = molecular target: SARS-CoV-2 spike (S) protein, variant KP.2 (SARS-CoV-2) (UniProt P0DTC2)
[6] = molecular target: SARS-CoV-2 spike (S) protein, variant KP.2.3 (SARS-CoV-2) (UniProt P0DTC2)
[7] = molecular target: SARS-CoV-2 spike (S) protein, variant KP.3 (SARS-CoV-2) (UniProt P0DTC2)
[8] = molecular target: SARS-CoV-2 spike (S) protein, variant KP.3.1.1 (SARS-CoV-2) (UniProt P0DTC2)
[9] = molecular target: SARS-CoV-2 spike (S) protein, variant LB.1 (SARS-CoV-2) (UniProt P0DTC2)
[10] = molecular target: SARS-CoV-2 spike (S) protein, variant XEC (SARS-CoV-2) (UniProt P0DTC2)
[11] = molecular target: SARS-CoV-2 spike (S) protein, D614G (SARS-CoV-2) (UniProt P0DTC2)
[12] = molecular target: SARS-CoV-2 spike (S) protein, variant BA.2.86 (SARS-CoV-2)
[13] = molecular target: SARS-CoV-2 spike (S) protein, variant CH.1.1 (SARS-CoV-2)
[14] = molecular target: SARS-CoV-2 spike (S) protein, variant EG.5.1 (SARS-CoV-2)
[15] = molecular target: SARS-CoV-2 spike (S) protein, variant JN.1 (SARS-CoV-2)
[16] = molecular target: SARS-CoV-2 spike (S) protein, variant KP.2 (SARS-CoV-2)
[17] = molecular target: SARS-CoV-2 spike (S) protein, variant KP.2.3 (SARS-CoV-2)
[18] = molecular target: SARS-CoV-2 spike (S) protein, variant KP.3 (SARS-CoV-2)
[19] = molecular target: SARS-CoV-2 spike (S) protein, variant KP.3.1.1 (SARS-CoV-2)
[20] = molecular target: SARS-CoV-2 spike (S) protein, variant LB.1 (SARS-CoV-2)
[21] = molecular target: SARS-CoV-2 spike (S) protein, variant XEC (SARS-CoV-2)
[22] = molecular target: SARS-CoV-2 spike (S) protein, BA.1 variant (SARS-CoV-2) (UniProt P0DTC2)
[23] = molecular target: SARS-CoV-2 spike (S) protein, BA.2.12.1 variant (SARS-CoV-2) (UniProt P0DTC2)
[24] = molecular target: SARS-CoV-2 spike (S) protein, BA.2.75 variant (SARS-CoV-2) (UniProt P0DTC2)
[25] = molecular target: SARS-CoV-2 spike (S) protein, BA.2.75.2 variant (SARS-CoV-2) (UniProt P0DTC2)
[26] = molecular target: SARS-CoV-2 spike (S) protein, BA.4.6 variant (SARS-CoV-2) (UniProt P0DTC2)
[27] = molecular target: SARS-CoV-2 spike (S) protein, BA.4/5 variant (SARS-CoV-2) (UniProt P0DTC2)
[28] = molecular target: SARS-CoV-2 spike (S) protein, variant BJ.1 (SARS-CoV-2) (UniProt P0DTC2)
[29] = molecular target: SARS-CoV-2 spike (S) protein, variant BQ.1.1 (SARS-CoV-2) (UniProt P0DTC2)
[30] = molecular target: SARS-CoV-2 spike (S) protein, variant XBB (SARS-CoV-2) (UniProt P0DTC2)

VYD222 (antibody) gave a neutralizing activity IC50 (µg/ml (caption; values match nM)) [1] of 14.2, a neutralizing activity IC80 (µg/ml (caption; values match nM)) [1] of 36.7 and a neutralizing activity IC50 (µg/ml (caption; values match nM)) [2] of 9.93. For the same substance, the neutralizing activity IC80 (µg/ml (caption; values match nM)) [2] was 30.4, the neutralizing activity IC50 (µg/ml (caption; values match nM)) [3] was 6 and the neutralizing activity IC80 (µg/ml (caption; values match nM)) [3] was 20.9. The neutralizing activity IC50 (µg/ml (caption; values match nM)) [4] was 4.71, the neutralizing activity IC80 (µg/ml (caption; values match nM)) [4] was 15.6 and the neutralizing activity IC50 (µg/ml (caption; values match nM)) [5] was 4.56. For the same substance, the neutralizing activity IC80 (µg/ml (caption; values match nM)) [5] was 16.5, the neutralizing activity IC50 (µg/ml (caption; values match nM)) [6] was 28.4 and the neutralizing activity IC80 (µg/ml (caption; values match nM)) [6] was 66.3. It also gave a neutralizing activity IC50 (µg/ml (caption; values match nM)) [7] of 8.83, a neutralizing activity IC80 (µg/ml (caption; values match nM)) [7] of 39.5 and a neutralizing activity IC50 (µg/ml (caption; values match nM)) [8] of 27.2. For the same substance, the neutralizing activity IC80 (µg/ml (caption; values match nM)) [8] was over 67, the neutralizing activity IC50 (µg/ml (caption; values match nM)) [9] was 30.8 and the neutralizing activity IC80 (µg/ml (caption; values match nM)) [9] was over 67. It also gave a neutralizing activity IC50 (µg/ml (caption; values match nM)) [10] of over 67, a neutralizing activity IC80 (µg/ml (caption; values match nM)) [10] of over 67 and a neutralization IC50 [11] of 0.01 µg/mL. The neutralization IC50 [12] was 2.13 µg/mL, the neutralization IC50 [13] was 1.49 µg/mL and the neutralization IC50 [14] was 0.899 µg/mL. It also gave a neutralization IC50 [15] of 0.706 µg/mL, a neutralization IC50 [16] of 0.684 µg/mL and a neutralization IC50 [17] of 4.25 µg/mL. It also gave a neutralization IC50 [18] of 1.32 µg/mL, a neutralization IC50 [19] of 4.05 µg/mL and a neutralization IC50 [20] of 4.62 µg/mL. The neutralization IC50 [21] was over 10 µg/mL.
LY-CoV-1404 (antibody) was tested, and the pseudotyped neutralization potency IC50 [22] was 0.002 µg/mL, the pseudotyped neutralization potency IC80 [22] was 0.005 µg/mL and the pseudotyped neutralization potency IC50 [23] was 0.0013 µg/mL. For the same substance, the pseudotyped neutralization potency IC80 [23] was 0.004 µg/mL, the pseudotyped neutralization potency IC50 [24] was 0.003 µg/mL and the pseudotyped neutralization potency IC80 [24] was 0.015 µg/mL. For the same substance, the pseudotyped neutralization potency IC50 [25] was 0.001 µg/mL, the pseudotyped neutralization potency IC80 [25] was 0.005 µg/mL and the pseudotyped neutralization potency IC50 [26] was 0.0004 µg/mL. The pseudotyped neutralization potency IC80 [26] was 0.0014 µg/mL, the pseudotyped neutralization potency IC50 [27] was 0.0014 µg/mL and the pseudotyped neutralization potency IC80 [27] was 0.003 µg/mL. For the same substance, the pseudotyped neutralization potency IC50 [28] was over 10 µg/mL, the pseudotyped neutralization potency IC80 [28] was over 10 µg/mL and the pseudotyped neutralization potency IC50 [29] was over 10 µg/mL. The pseudotyped neutralization potency IC80 [29] was over 10 µg/mL, the pseudotyped neutralization potency IC50 [30] was over 10 µg/mL and the pseudotyped neutralization potency IC80 [30] was over 10 µg/mL.
